{
  "source": "the DeepSol protein solubility set",
  "assay": "soluble on expression in E. coli; label from the status in PepcDB or PDB records",
  "data": [
    {"sequence": "SASEDAALDATGHKKGEPAFGVTIPKGTTYRDSDGKEVPHPCVDRKIGYQGHFDALYGTYNYSVKEPATDLPKLELMAVDGQQVVPQESLCFRLPPDAGEDGEELSRIRIPDDEEFSFLGKPGDIVWYAPQNIPFANGHRPIWAGIGAFDPHHEPKGKDSIPEHLDKNMYFELKDFSGPGDVNVFFKNNSRKEVERIFSSNDEELKTIEYEMGSHGHFNWTFSKPGIYELTWEAYVKNGAFKVKTEPVRQIWLVGSDEEVGLPEGTTTNLNKITKPLDKDATNEPPTDPSEKKKPPRPEKGHSETSSPSALDDSIERAWKLTGTPKTIINDGHMDLALTRPDKEFVTVINREGKKYSSGDVTLAVPDSGGDQGGPLVKTDSWKDRIEAQISGSLPDQAWVLPESQDHKLPWVGFSNEDLPSDALLPDSKMTVSLNKVELPHDGRMISWHNGISGIDLLTDTDDLSKNLEYGLHAHDHQSMLFTKEGAYGLEYSFDITTASGKQESYPLHISYLVGDATIARAKEILAGEKLGGSLKKKPQEKETKKPASVQNKSGKHNKDTVGSESARKRQQLAATSGSDTNGIYSFHDGDVQDEAVTTAAEWQELDT", "values": [
      {"measurement": "soluble on expression in E. coli", "result": "not soluble"}
    ]},
    {"sequence": "MRCYAKIHSYQLLFVADVDYDCHHKDKFFRRHCVVAKILPRFDAVLFLDADTGVVNPSRKIEEFLKPGIDITFVNRFCNWEIASGFYLARNTPFAINLLNNFADYESKLPNSFHGTDNGAIHIFLAEKIFPQASIEIGICRRAYEKSTSVEDLILYEACIKALFGVVTDFGKIQILRKGTGWARDGWLTSMVWHPETDFMLHGWKTNALIPTPTDPLVAIEMSMSQWFNPLNGSIDLSKCNSHNSTWNYDARLLGNNEEIQKSLHRIQKENSILQVKAYSDFSKFISL", "values": [
      {"measurement": "soluble on expression in E. coli", "result": "not soluble"}
    ]},
    {"sequence": "MSKDSNKIIEQSREIGISIIMPLYNVEEVILETLESIHEQTFDSYEVLLIDDGSTDKTIEIVTEYIKDKPRFKLYTQPNGGPASARNHGLRLAIGMYICFVDSDDILPNYSLQLMYDGAISTGAKLITGATKRFNSEGEWFIPMHIQYNIAKPGMKTLLKNPELFYSIGPCAKLYHHSLIDGVFFPENIRYGEDQPFVLHALLQAKDIYTVEKVVYYYRLRDGESQSLTQSVDKDPIRILKSVFQIFDYGEEELKKNNTDYEVALKYYQRVSSVELWGALRAAIESKKSENQKIAFTMTLDWLKTKSDDFLNIIPSFRYFLLFSSIERVRYITKDNKENYRNLIGYLWSRQGEEAKIAFRKTYPIPMKAALQIIENNNWRDARKISFKFIVRRKFKAPILIRKISRGIIFRIATLMPRKKNQVILATERSTTLEGNLLAIYDYMFYNNMPQKVYVFLRKNRNWFEMFQLYYTLGRTKTIVLDDYYNKIYGLKFNKNTHVVQSWHATGAFKKFGFSALEGTDANTEEFETRAHSPYTDVLVSSEGIIPEYMEAFRKQANQIKPIGVPRTDVFFDDEYVNYTKEKYMKMYPQLRDKKILLYAPTFRGGPNERFNYSVVLDIAALKKELGDTHILILKFHPVIKNVSFNVEEDDPFILNLTLNNDINDLMLFSDALITDYSSVIFEFSLMNKPIYFFAYDIDDYLDERGFYFDYKATIPGEVFRDTPSLIEAVKSGLYNYDELEIFKKKFVGSLDGNSTKRFVETYIGKANEKVKDILEHHHHHH", "values": [
      {"measurement": "soluble on expression in E. coli", "result": "soluble"}
    ]},
    {"sequence": "METSPVFIDYVTIRQEYFGGGLPVLNDGKVLKVDADGEIEYSTDVRCIIEGSYDSRVQVRCDGNTVEFTGNISRYGRRDNLFGYDWPTTIARINDLLSLLGLPPFTSGKLYKFADTGWSWSGARVSRIDLTCNYSTGSKESMHAVLCHMAGQHVGRQKGSLSPDSGTVEYGRGSKYVYGKLYAKYQELEKHRSKKSGSHVSDDVIDYCKTEGILREEFTLKSRFLLQNNLAYLGAITQDNLNQILEHHHHHH", "values": [
      {"measurement": "soluble on expression in E. coli", "result": "not soluble"}
    ]},
    {"sequence": "MGSDKIHHHHHHLSQSTPDLLTKQLRYTDYLRANGIPFMKCVKPTDEALFTTIMDSIGQEWTCCLFHWIDGHHVTANTEQTAARMGQLARQLHDVSLHEQEIQFPFIDHTVTYQRWLGDLQRLSASRMPEPVQNSFQEYLTLAQQHLDTARLPKSSSLQPVISTDLNSLNVLWDSDQHIVGIVDHEHIGATDRVQDLAWLIKWYARTEGIDSHDVSGRLAKSLLTHYNSPTLLVPKEDPRLASLLWLSGCMNLHFVERTKQLAFDAENNPVGYDQFQLHLQTYRLRGERLVGLLT", "values": [
      {"measurement": "soluble on expression in E. coli", "result": "not soluble"}
    ]},
    {"sequence": "MANEPQKSDDNGQAAEAVVTDDEIVLQDQQLKTIEDEQKSVPLVATLAPFSILCAEYDNETSAAFLSKATELSEVYGEIRYIRGDGNCFYRAILVGLIEIMLKDRARLEKFIASSRDWTRTLVELGFPDWTCTDFCDFFIEFLEKIHSGVHTEEAVYTILNDDGSANYILMFFRLITSAFLKQNSEEYAPFIDEGMTVAQYCEQEIEPMWKDADHLAINSLIKAAGTRVRIEYMDRTAAPNGGWHYDIPSDDQQIAPEITLLYRPGHYDVIYKKDSTEASEIEN", "values": [
      {"measurement": "soluble on expression in E. coli", "result": "not soluble"}
    ]},
    {"sequence": "QLVWGPDLSEKASAQRTRVFVDAARRGEIYDNTGQLLAYTMQARSLTASPKQLRKEIEYTAKIELQDEKEYSSWDENQRKKKIEDKVDSYLEEYSNEIPKIIKDSEASANDIKSKDILKKLKADTSYEVLVRNVDPDVAENIAQKFHGIAADLQQIRQYPNGAVAENVIGKISQDGQGQFGFESSNNSVLSGIDGRKTLDVAASGEVIPGSLRDEVPATNGANVTLTLDLDMQTYVQQQLEQAVSNSGAQSASAVVLDVKTGKVLTMANSGTINPNGDIEKQLKDNKSFENTTISSPFEPGSVAKIITAAGVIEDGKSTPDEVLQVPGSIEMSGVNVRDAWEHGTVGYTTTGIFGKSSNVGTLMLAQRLGEQRFNDLLHRFGIGQNTGIELPVESQGLLPDISQ", "values": [
      {"measurement": "soluble on expression in E. coli", "result": "not soluble"}
    ]},
    {"sequence": "MTTRDLFADHAPADDRRIALGEAAVVLRGFALAEATALLAAIDDIARQAPFRHMVTPGGFEMSVALTNCGALGWTSDRRGYRYAARDPQTGQPWPPLPDCFLRLARDAAAAAGFPGFTPDACLINRYVPGARLSLHQDKDEQDYGAPIVSVSLGMPAMFLWGGHRRTDKTLRVPLFHGDVVVWGGPDRLRYHGVLPLKEAAHPLLGAQRINLTLRRAGLEHHHHHH", "values": [
      {"measurement": "soluble on expression in E. coli", "result": "soluble"}
    ]},
    {"sequence": "MKDLIIIGAGQAGLTMGYYLKQEGYNFLLLEAGKRVGDSWRNRYDSLQLFTPRSYSSLPGMALIGEKNEFPYKDEIATYLEEYARHFQLPVQLQTEVLKIKKEKEIFELHTPTEILQTKKVIIASGAFQQPFIPSVSANLSSHIFQIHSSQYKSPSQIPKGKVLVVGGGNSGMQIAVELAKTHEVTVSISHPLTFLPLQLFGKSIFNLLEKVGLLYAEINTKRGRWFQKRKDPIFGFEGKKLIRNGAIKLQEKVVSASRNNIMFQNGDTYSAESIIWSTGFVQNYNWIEIEQAVNEKGFPNHIKGISPVKGLYYIGLPWQSQRGSALICGVGKDAEYVLSEIKKIDQLEHHHHHH", "values": [
      {"measurement": "soluble on expression in E. coli", "result": "soluble"}
    ]},
    {"sequence": "MGSDKIHHHHHHMTINFNRIYVIQSLSKANGDELTGQQLFDDVLQYFNTKYGDKDARIFNVDNKKELLHALENIKSHCETDGIKPIIHFEIHGLEDKTGLSLNQEDVNWGDIYVKFIEINAASKWNLFITMGVCFGNYSMLLIRPSLPAPFTGILGSFEELFEWDLYIRYNAFYQELLNSLDFEKALEALHDSNPALPDDYRYINSEQTFKNVYQKYFDTQFSDVKIKERFNLTIAEEKISFTNRNIKRQFYSKFRTNLLNTKKEFFIKDKRKFFMFDVFPGHQYIYCVNWEPNYH", "values": [
      {"measurement": "soluble on expression in E. coli", "result": "not soluble"}
    ]},
    {"sequence": "FAVSSELSACGRARTYRVEGQLFYGSVEDFMAAFDFREPLERVTIDVSRAHIWDISSVQALDMAVLKFRREGAEVRIVGMNEASETLVDRLALHDRPGALDRLTAH", "values": [
      {"measurement": "soluble on expression in E. coli", "result": "not soluble"}
    ]},
    {"sequence": "MELAKFIGLTTFQDILEDCFALLVYERPEESNVGYFLEETQREVVADTVNAAILSTKPKGKNQSHSHLETLLRQLTACCLELRSLNDGQGEAFSLNRLLRTNNWKRTKKTT", "values": [
      {"measurement": "soluble on expression in E. coli", "result": "soluble"}
    ]},
    {"sequence": "GHMPNIPPPFTAPYAPDDAEIAARLLPASHLSPPQEARIHRTATRLIEAIRKRDDRLGGVEDMLREFALSTKEGLALMVLAEALLRVPDARTADQFIEDKLGEGDFIHHETKSTAFLVNASAWALGLSARVIQPGETPDGTIGRLVKRLGAPAVRTATRQAMRLMGNHFVLGETIEQALERGKPRSGQKTRYSFDMLGEGARTAADARRYFDAYASAIETIGKAAGNHALPDRPGISVKLSALHPRFEAISRARVMVELVPQLLDLAQRAKAHDLNFTVDAEEADRLELSLDVIAATLADPSLKGWDGFGLAIQAYQKRASAVIDYVDALARAHDRKLMVRLVKGAYWDTEIKRAQERGLDGYPVFTRKAMTDLNYVACASKLLALRPRIFPQFATHNALTVATVLEMAEGSSGFEFQRLHGMGEALYEQLAKDHADIAYRTYAPVGSHRDLLAYLVRRLLENGANSSFVAQAADYRVPVPALLQRPADAIVRPQAAAHPRIPLPCDLFAPERRNSRGVEFGARTALDQLLTDVKAETGDLKPIADATPDQAHAAVAAARAGFAGWSRTPAGIRAAALEQAAHLLESRSAHFIALLQREGGKTLDDALSELREAADFCRYYAAQGRKLFGSETAMPGPTGESNALTMRGRGVFVAISPWNFPLAIFLGQVTAALMAGNSVVAKPAEQTPRIAREAVALLHEAGIPKSALYLVTGDGRIGAALTAHPDIAGVVFTGSTEVARSINRALAAKDGPIVPLIAETGGINAMIADATALPEQVADDVVTSAFRSAGQRCSALRLLFVQEDVADRMIEMVAGAARELKIGDPSDVATHVGPVIDVEAKQRLDAHIARMKTEARLHFAGPAPEGCFVAPHIFELTEAGQLTEEVFGPILHVVRYRPENLERVLRAIERTGYGLTLGVHSRIDDSIEAIIDRVQVGNIYVNRNMIGAVVGVQPFGGNGLSGTGPKAGGPHYLARFATEQTVTINTAAAGGNAALLAGEE", "values": [
      {"measurement": "soluble on expression in E. coli", "result": "soluble"}
    ]},
    {"sequence": "MTSITVQLRSGLDGVYFALKQMSGLRAKLLLVGNENPVPTVLPASQRGTPFPGGNTMTQASLIRLSELNNDAQYNLNDTSMYNPVGAAAYGVNGDKIGTVRDALVEPETGRIRYFLVDVGGWFSSKEVLVPVGYGRVDDSGVYFDSLTKDQVKDMSEYRADQAYSSEMMDTDERVLRGNQSQEEYHQRAYQTPDRLQLLEERLVVNKDRFKAGSVQIGKRIETRQETVSVPLQREEVVIERHAVTDGRAVEGAVLGEGHQTMSVDLEAERANISKQAYVTEEVSVGKRAVTETQQVTETVGREVLDVNQTGDVRTTEGTALTDDTTKRNILEHHHHHH", "values": [
      {"measurement": "soluble on expression in E. coli", "result": "soluble"}
    ]},
    {"sequence": "MSLKTGTTLEKLAQVKTVAFDKTGTITQGKLVVDQVVPQGSQSADRLLQLAASAEQHSSHVLAQSLVAANRLPLLTATNVTETTAQGVVATINGQQVRAGKAAFVTSESITKPDQTAVYVAVDDVYQGYVSFNDRVRPEAATTMTRLRQAGVAHLMMISGDRQPIAEQIAQEVGLDQVHAECLPAGKIAVLDQLAANQRPVAMVGDGINDAPSLATADVGIAMGAHGATAASESADAVVLKDDLTRVSTARVIAQDTMRVARQSEGHHHHHH", "values": [
      {"measurement": "soluble on expression in E. coli", "result": "soluble"}
    ]},
    {"sequence": "MGSDKIHHHHHHMKHIGIIDVGSNSVRLLFAEITSKSSFKILTEFKEYVRLGSGFDSKGNITDNKIDSLISVLNLYKNFCNRFEDTEMVVTATEAFRRAKNQESIIQTVKNNLNLNIRVLSGEEEAYYDYFAAINTLDIKDGLIMDIGGSSTELILVANRTLKECVSLQFGAITLIEKFNIKDSIDEKQEKMLKDFLLESFSSIPWLKSISSTTLIGIGGSIRNIGKISKKQKDYPLNLIHNYIMPAKSAEDIYNDVKNKTLEQRKKIKGLSKDRADIFVGASLAVSMLVNILSINEIIICRNGLREGLLLSKLFHKKPIDNILDFSINNVLINNSINITHSFHVYKLTSLLFSSLQSVHKINISLDKVIKTASMFHNAGVNISYYYHHRHSAYIILNSSLYGISHKECVMSACIDIYQRSENIQSMLNEYGNMLEKEDIYAIKVIGILLRIAENLDKDLSGSIYDLKCIVDDAVVIIKTYSKEPSDFLISEAQNSSGLFKNTFNKSLYIV", "values": [
      {"measurement": "soluble on expression in E. coli", "result": "not soluble"}
    ]}
  ]
}
